Experiment [1] concerns the target T1, B8_BP-LATY.
T1 construct: positions 13-16 worked out from the printed Y16; source: E. coli BL21(DE3*), purified (Ni-NTA, SEC); not shown: His tag, C-terminal, kept
In words: BLI; Octet RED96; His-tagged and Avi-tagged minibinders immobilised on Ni-NTA and streptavidin sensor tips, dipped into wells with different concentrations of integrin; association 900 s, dissociation 1200 s. The settings on record: both partners purified. (Biolayer interferometry detects binding as a change in optical thickness at a sensor tip.)

Experiment [2] addresses T2, B8_BP_dslf.
T2 construct: de novo designed RGD miniprotein with redesigned, extended β-loop and the motif MAVY in place of LXX(L/I); For BLI His-tagged (Ni-NTA tips) or N-terminally Avi-tagged, biotinylated (streptavidin tips); The methods of model building name a design model 'B8_BP2_dslf'; also called MAVY; source: E. coli BL21(DE3*), purified (Ni-NTA, SEC); not shown: His tag, C-terminal, kept
Described as above. The following applies: both partners purified.

Our source for the Kd values is publication PMC10500007, “De novo design of highly selective miniprotein inhibitors of integrins αvβ6 and αvβ8” (Nature Communications, 2023).

T1 sequence (main, as listed by the source): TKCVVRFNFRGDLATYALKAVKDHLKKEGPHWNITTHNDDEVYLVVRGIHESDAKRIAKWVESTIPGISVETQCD

B1: human integrin αvβ8 (soluble, construct not stated) (complex)
chain 1: FNLDVDSPAEYSGPEGSYFGFAVDFFVPSASSRMFLLVGAPKANTTQPGIVEGGQVLKCDWSSTRRCQPIEFDATGNRDYAKDDPLEFKSHQWFGASVRSKQDKILACAPLYHWRTEMKQEREPVGTCFLQDGTKTVEYAPCRSQDIDADGQGFCQGGFSIDFTKADRVLLGGPGSFYWQGQLISDQVAEIVSKYDPNVYSIKYNNQLATRTAQAIFDDSYLGYSVAVGDFNGDGIDDFVSGVPRAARTLGMVYIYDGKNMSSLYNFTGEQMAAYFGFSVAATDINGDDYADVFIGAPLFMDRGSDGKLQEVGQVSVSLQRASGDFQTTKLNGFEVFARFGSAIAPLGDLDQDGFNDIAIAAPYGGEDKKGIVYIFNGRSTGLNAVPSQILEGQWAARSGCPPSFGYSMKGATDIDKNGYPDLIVGAFGVDRAILYRARPVITVNAGLEVYPSILNQDNKTCSLPGTALKVSCFNVRFCLKADGKGVLPRKLNFQVELLLDKLKQKGAIRRALFLYSRSPSHSKNMTISRGGLMQCEELIAYLRDESEFRDKLTPITIFMEYRLDYRTAADTTGLQPILNQFTPANISRQAHILL
chain 2: EDNRCASSNAASCARCLALGPECGWCVQEDFISGGSRSERCDIVSNLISKGCSVDSIEYPSVHVIIPTENEINTQVTPGEVSIQLRPGAEANFMLKVHPLKKYPVDLYYLVDVSASMHNNIEKLNSVGNDLSRKMAFFSRDFRLGFGSYVDKTVSPYISIHPERIHNQCSDYNLDCMPPHGYIHVLSLTENITEFEKAVHRQKISGNIDTPEGGFDAMLQAAVCESHIGWRKEAKRLLLVMTDQTSHLALDSKLAGIVCPNDGNCHLKNNVYVKSTTMEHPSLGQLSEKLIDNNINVIFAVQGKQFHWYKDLLPLLPGTIAGEIESKAANLNNLVVEAYQKLISEVKVQVENQVQGIYFNITAICPDGSRKPGMEGCRNVTSNDEVLFNVTVTMKKCDVTGGKNYAIIKPIGFNETAKIHI
The term Kd denotes a measure of binding affinity in units of concentration. High values mean a looser complex, low ones a tighter complex. With B1, the Kd in experiment [1] came to 0.5 nM; in experiment [2], 1.9 nM.
